In assay [1] the target is T1, human sucrase-isomaltase complex (hSI) receptor domain, amino acid residues 272-667, His-tag fusion protein (human), P14410. The experiment in a line: phage ELISA, coated hSI domain. On the technique in general: An ELISA detects its analyte on a solid surface through an enzyme-linked reagent.
For assay [2], the target named is T1, human sucrase-isomaltase complex (hSI) …. The experiment in a line: phage ELISA, OD on hSI over OD on BSA.
Assay [3] deals with T2, human D2H transporter receptor domain, amino acid residues 387-685, His-tag fusion protein (human), Q07837.
T2 chain: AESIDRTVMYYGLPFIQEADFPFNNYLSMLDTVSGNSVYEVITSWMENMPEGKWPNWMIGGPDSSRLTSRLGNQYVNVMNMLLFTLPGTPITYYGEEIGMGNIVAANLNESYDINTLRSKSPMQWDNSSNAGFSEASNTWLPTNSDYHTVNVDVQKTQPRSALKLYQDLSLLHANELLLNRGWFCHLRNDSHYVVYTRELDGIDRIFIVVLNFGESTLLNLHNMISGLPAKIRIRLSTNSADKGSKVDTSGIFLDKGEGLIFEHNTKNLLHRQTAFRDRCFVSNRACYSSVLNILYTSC
The experiment in a line: phage ELISA, coated D2H domain.

Assay [4] addresses T2, human D2H transporter receptor domain, …. Put plainly: phage ELISA, OD on D2H over OD on BSA.

T1 sequence (P14410 272-667, one chain of several): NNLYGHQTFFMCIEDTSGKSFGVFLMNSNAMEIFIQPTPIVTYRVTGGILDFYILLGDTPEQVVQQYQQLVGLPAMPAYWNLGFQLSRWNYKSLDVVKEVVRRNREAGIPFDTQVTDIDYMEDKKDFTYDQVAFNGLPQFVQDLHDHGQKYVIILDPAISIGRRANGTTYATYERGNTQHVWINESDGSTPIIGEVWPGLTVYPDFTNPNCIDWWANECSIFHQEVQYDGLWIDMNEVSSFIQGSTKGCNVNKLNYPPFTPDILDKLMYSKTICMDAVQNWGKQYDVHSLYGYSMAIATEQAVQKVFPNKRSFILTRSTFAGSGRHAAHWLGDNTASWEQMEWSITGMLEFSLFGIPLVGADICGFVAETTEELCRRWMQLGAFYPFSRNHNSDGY

Consider SPRSFWPVVSRHESFGISNYLGCGYRTCISGTMTKSSPIYPRHS (modifications not checked) [phage S21], for which the OD in assay [1] was 0.845 OD 650 nm. This molecule yielded a hSI/BSA in assay [2] of 9.
With SWSSWNWSSKTTRLGDRATREGCGPSQSDGCPYNGRLTTVKPRT (modifications not checked) [phage DCX36], the OD in assay [3] is 0.293 OD 650 nm. Moreover, the D2H/BSA in assay [4] amounted to 5.

For the origin of these results see patent US7135457.
